Assay in all cases: SPR (Biacore), antibody from supernatant captured on Protein A, human CD38 injected, 1:1 fit
(SPR reads the build-up and loss of mass on a sensor chip optically.)

Assay [1] has as its target T1, Human CD38 (human, UniProt P28907 43-300).
Protocol: (§1) The capacity of anti-CD38 antibodies and anti-CD38-attenuated IFN fusion proteins to bind to human CD38 were measured using unpurified transfected cell supernatant prepared 7:1 with Non Specific Binding Reducer (GE Healthcare, Piscataway, N.J.). […] FC2 (or FC4) was used as a reference throughout the experiments. The experiments were run at 37° C. in HBS-P+ buffer (0.01 M HEPES, 0.15 M NaCl, 0.005% v/v Surfactant P20, pH 7.4). At a flow rate of 20 l/min, both flow cells were regenerated with 10 μL 50 mM sodium hydroxide before 40 μL supernatant containing the protein was passed over FC1 (or FC3) only. 301 μL of CD38 (10 g/mL in running buffer) or 30 μL running buffer was injected over FC1 and FC2 with a 5 minute dissociation time. Both surfaces were regenerated twice with sodium hydroxide. Results were generated using the BIAevaluation software provided with the machine. Microsoft Excel was used for calculations. BIAevaluation software automatically subtracted the reference sensorgram giving a trace of FC2-1 (or FC4-3) for each sample. A double reference was performed for each antibody tested by subtracting the sensorgram with a CD38 injection from the sensorgram with a blank running buffer injection. […] BIAevalution was used to fit the sensorgram using a Langmuir 1:1 equation in order to generate an equilibrium association constant (KD)
Assay [2] deals with T1, Human CD38. This is another data set of the same source.
Protocol: as §1
Assay [3] addresses T1, Human CD38. This is another data set of the same source.
Protocol: as §1
For assay [4], the target named is T1, Human CD38. This is another data set of the same source.
Protocol: as §1
Assay [5] has as its target T1, Human CD38. This is another data set of the same source.
Protocol: as §1

Like-named read-outs stand apart in the source and are kept apart here.

B1: X02.9 (antibody, human IgG4 S228P)
heavy: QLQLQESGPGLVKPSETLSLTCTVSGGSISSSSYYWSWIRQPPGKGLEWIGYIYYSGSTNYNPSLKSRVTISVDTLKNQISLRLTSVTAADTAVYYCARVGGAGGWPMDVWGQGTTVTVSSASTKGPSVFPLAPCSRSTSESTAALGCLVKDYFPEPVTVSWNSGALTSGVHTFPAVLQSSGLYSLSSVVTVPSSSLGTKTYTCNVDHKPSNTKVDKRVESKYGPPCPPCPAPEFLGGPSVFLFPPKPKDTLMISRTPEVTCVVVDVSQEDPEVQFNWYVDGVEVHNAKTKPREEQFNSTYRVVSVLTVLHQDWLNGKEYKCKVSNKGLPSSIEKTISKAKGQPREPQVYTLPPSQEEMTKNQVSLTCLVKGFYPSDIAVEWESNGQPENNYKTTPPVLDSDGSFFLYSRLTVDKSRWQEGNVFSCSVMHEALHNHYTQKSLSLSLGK
VL: QAVLTQPASLSASPGESARLTCTLPSDINVRYYNIYWYQQKPGSPPRYLLYYYSDSHKGQGSGVPSRFSGSKDVSTNSGILLISGLQSEDEADYYCMTWSSNGSGVFGGGTQLTVLG
notes: IgG4 S228P; VH H40P relative to X02.1
A word on the Kd: it is the constant that tells how readily two partners part at equilibrium. For B1, binding in the assay with Human CD38 [1] was put at a Kd of 26.3 nM.

B2: X02.105 (antibody, V domains shown)
VH: QLQLQESGPGLVKPSETLSLTCTVSGGSISSSSYYWSWIRQHPGKGLEWIGYIYYSGSTNYNPSLKSRVTISVDTLKNQISLRLTSVTAADTAVYYCARVGGAGGWPMDVWGQGTTVTVSS
VL: QAVLTQPASLSASPGESARLTCTLPSDINVRYYNIYWYQQKPGSPPRYLLYYYSDSHKGQGSGVPSRFSGSKDVSTNSGILLISGLQSEDEADYYCMTWPSNGSGVFGGGTQLTVLG
notes: IgG4 S228P with the X02.1 VH; VL S92P relative to A02.1
As to B2, the Kd with Human CD38 [2] stood at 33.1 nM.

B3: X02.106 (antibody, V domains shown)
VH: QLQLQESGPGLVKPSETLSLTCTVSGGSISSSSYYWSWIRQHPGKGLEWIGYIYYSGSTNYNPSLKSRVTISVDTLKNQISLRLTSVTAADTAVYYCARVGGAGGWPMDVWGQGTTVTVSS
VL: QAVLTQPASLSASPGESARLTCTLPSDINVRYYNIYWYQQKPGSPPRYLLYYYSDSHKGQGSGVPSRFSGSKDVSTNSGILLISGLQSEDEADYYCMTWSSNASGVFGGGTQLTVLG
notes: IgG4 S228P with the X02.1 VH; VL G95A relative to A02.1
B3: in the assay with Human CD38 [2], the Kd was 44.7 nM.

B4: X02.81 (antibody, V domains shown)
VH: QLQLQESGPGLVKPSETLSLTCTVSGGSISSSSYYWSWIRQHPGKGLEWIGYIYYSGSTNYNPSLKSRVTISVDTLKNQISLRLTSVTAADTAVYYCARVGGAGGWPMDVWGQGTTVTVSS
VL: QAVLTQPASLSASPGESARLTCTLPSDINVRYYNIYWYQQKPGSPPRYLLYYYSDSHKGQGSGVPSRFSGSKDVSTASGILLISGLQSEDEADYYCMTWSSNGSGVFGGGTQLTVLG
notes: IgG4 S228P with the X02.1 VH; VL N69A relative to A02.1
In the assay with Human CD38 [3], B4 came in with a Kd of 0.267 nM.

B5: X02.94 (antibody, V domains shown)
VH: QLQLQESGPGLVKPSETLSLTCTVSGGSISSSSYYWSWIRQHPGKGLEWIGYIYYSGSTNYNPSLKSRVTISVDTLKNQISLRLTSVTAADTAVYYCARVGGAGGWPMDVWGQGTTVTVSS
VL: QAVLTQPASLSASPGESARLTCTLPSDINVRYYNIYWYQQKPGSPPRYLLYYYSDSHKGQGSGVPSRFSGSKDVSTNSGILLISGLQSEDEADYYCLTWSSNGSGVFGGGTQLTVLG
notes: IgG4 S228P with the X02.1 VH; VL M89L relative to A02.1
B5 yielded a Kd in the assay with Human CD38 [3] of 0.00348 nM.

B6: X02.80 (antibody, V domains shown)
VH: QLQLQESGPGLVKPSETLSLTCTVSGGSISSSSYYWSWIRQHPGKGLEWIGYIYYSGSTNYNPSLKSRVTISVDTLKNQISLRLTSVTAADTAVYYCARVGGAGGWPMDVWGQGTTVTVSS
VL: QAVLTQPASLSASPGESARLTCTLPSDINVRYYNIYWYQQKPGSPPRYLLYYYSDSHKGQGSGVPSRFSGSKDVSTNSGILLISGLQSEDEADYYCMTWSSQGSGVFGGGTQLTVLG
notes: IgG4 S228P with the X02.1 VH; VL N94Q relative to A02.1
Turning to B6, in the assay with Human CD38 [3], the Kd was 1.44 nM.

B7: X02.108 (antibody, human IgG4 S228P, V domains shown)
VH: QLQLQESGPGLVKPSETLSLTCTVSGGSISSSSYYWSWIRQHPGKGLEWIGYIYYSGSTNYNPSLKSRVTISVDTLKNQFSLRLTSVTAADTAVYYCARVGGAGGWPMDVWGQGTTVTVSS
VL: QAVLTQPASLSASPGESARLTCTLPSDINVRYYNIYWYQQKPGSPPRYLLYYYSDSHKGQGSGVPSRFSGSKDVSTNSGILLISGLQSEDEADYYCMTWSSNGSGVFGGGTQLTVLG
notes: IgG4 S228P; VH I78F relative to X02.1
Consider B7, for which, in the assay with Human CD38 [1], binding was characterised by a dissociation constant (Kd) of 26.3 nM.

B8: X02.68 (antibody, human IgG4 S228P, V domains shown)
VH: QLQLQESGPGLVKPSETLSLTCKVSGGSISSSSYYWSWIRQHPGKGLEWIGYIYYSGSTNYNPSLKSRVTISVDTLKNQISLRLTSVTAADTAVYYCARVGGAGGWPMDVWGQGTTVTVSS
VL: QAVLTQPASLSASPGESARLTCTLPSDINVRYYNIYWYQQKPGSPPRYLLYYYSDSHKGQGSGVPSRFSGSKDVSTNSGILLISGLQSEDEADYYCMTWSSNGSGVFGGGTQLTVLG
notes: IgG4 S228P; VH T23K relative to X02.1
As to B8, the Kd with Human CD38 [4] is 0.0106 nM.

B9: X02.100 (antibody, V domains shown)
VH: QLQLQESGPGLVKPSETLSLTCTVSGGSISSSSYYWSWIRQHPGKGLEWIGYIYYSGSTNYNPSLKSRVTISVDTLKNQISLRLTSVTAADTAVYYCARVGGAGGWPMDVWGQGTTVTVSS
VL: QAVLTQPASLSASPGESARLTCTLPSDINVRYYNIYWYQQKPGSPPRYLLYYYSDSDKGQGSGVPSRFSGSKDVSTNSGILLISGLQSEDEADYYCMTWSSNGSGVFGGGTQLTVLG
notes: IgG4 S228P with the X02.1 VH; VL H(54A)D relative to A02.1
Regarding B9, in the assay with Human CD38 [2], binding was characterised by a dissociation constant (Kd) of 160 nM.

B10: X02.93 (antibody, V domains shown)
VH: QLQLQESGPGLVKPSETLSLTCTVSGGSISSSSYYWSWIRQHPGKGLEWIGYIYYSGSTNYNPSLKSRVTISVDTLKNQISLRLTSVTAADTAVYYCARVGGAGGWPMDVWGQGTTVTVSS
VL: QAVLTQPASLSASPGESARLTCTLPSDINVRYYNIYWYQQKPGSPPRYLLYYYSDSHKGQGSGVPSRFSGSKDVSTNSGILLISGLQSEDEADYYCITWSSNGSGVFGGGTQLTVLG
notes: IgG4 S228P with the X02.1 VH; VL M89I relative to A02.1
B10: in the assay with Human CD38 [3], binding was put at a Kd of 0.0256 nM.

B11: X02.99 (antibody, V domains shown)
VH: QLQLQESGPGLVKPSETLSLTCTVSGGSISSSSYYWSWIRQHPGKGLEWIGYIYYSGSTNYNPSLKSRVTISVDTLKNQISLRLTSVTAADTAVYYCARVGGAGGWPMDVWGQGTTVTVSS
VL: QAVLTQPASLSASPGESARLTCTLPSDINVRSYNIYWYQQKPGSPPRYLLYYYSDSHKGQGSGVPSRFSGSKDVSTNSGILLISGLQSEDEADYYCMTWSSNGSGVFGGGTQLTVLG
notes: IgG4 S228P with the X02.1 VH; VL Y30S relative to A02.1
In the assay with Human CD38 [2], B11 registered a Kd of 0.00321 nM.

B12: X02.97 (antibody)
heavy: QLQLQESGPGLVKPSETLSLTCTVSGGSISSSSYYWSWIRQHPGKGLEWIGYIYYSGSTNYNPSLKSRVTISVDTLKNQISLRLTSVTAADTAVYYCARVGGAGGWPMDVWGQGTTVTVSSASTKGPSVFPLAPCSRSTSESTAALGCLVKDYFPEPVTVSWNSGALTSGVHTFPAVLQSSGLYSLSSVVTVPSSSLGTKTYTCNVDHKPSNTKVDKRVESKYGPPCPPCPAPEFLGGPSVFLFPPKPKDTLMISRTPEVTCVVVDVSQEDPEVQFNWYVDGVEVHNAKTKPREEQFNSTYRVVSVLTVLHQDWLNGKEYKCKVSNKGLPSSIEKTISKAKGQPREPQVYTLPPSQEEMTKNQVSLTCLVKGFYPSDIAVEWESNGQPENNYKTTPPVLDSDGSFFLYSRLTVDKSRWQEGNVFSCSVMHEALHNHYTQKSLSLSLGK
VL: QAVLTQPASSSASPGESARLTCTLPSDINVRYYNIYWYQQKPGSPPRYLLYYYSDSHKGQGSGVPSRFSGSKDVSTNSGILLISGLQSEDEADYYCMTWSSNGSGVFGGGTQLTVLG
notes: IgG4 S228P with the X02.1 VH; VL L11S relative to A02.1
In the assay with Human CD38 [2], B12 registered a Kd of 0.00751 nM.

B13: X02.10 (antibody, human IgG4 S228P)
heavy: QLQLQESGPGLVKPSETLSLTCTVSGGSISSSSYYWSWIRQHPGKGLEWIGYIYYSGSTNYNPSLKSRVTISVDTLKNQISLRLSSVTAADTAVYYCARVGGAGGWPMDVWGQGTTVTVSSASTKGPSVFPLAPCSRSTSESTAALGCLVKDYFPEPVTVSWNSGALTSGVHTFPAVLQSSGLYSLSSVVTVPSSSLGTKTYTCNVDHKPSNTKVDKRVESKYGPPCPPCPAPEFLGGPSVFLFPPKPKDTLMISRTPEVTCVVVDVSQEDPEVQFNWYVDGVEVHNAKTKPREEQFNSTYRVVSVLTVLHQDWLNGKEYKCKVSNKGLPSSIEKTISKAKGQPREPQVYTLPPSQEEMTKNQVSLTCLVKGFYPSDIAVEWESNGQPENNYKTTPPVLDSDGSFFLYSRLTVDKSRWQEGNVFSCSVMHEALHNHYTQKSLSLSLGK
VL: QAVLTQPASLSASPGESARLTCTLPSDINVRYYNIYWYQQKPGSPPRYLLYYYSDSHKGQGSGVPSRFSGSKDVSTNSGILLISGLQSEDEADYYCMTWSSNGSGVFGGGTQLTVLG
notes: IgG4 S228P; VH T(82A)S relative to X02.1
As for B13, in the assay with Human CD38 [1], the affinity, expressed as Kd, was 20.7 nM.

B14: X02.87 (antibody, V domains shown)
VH: QLQLQESGPGLVKPSETLSLTCTVSGGSISSSSYYWSWIRQHPGKGLEWIGYIYYSGSTNYNPSLKSRVTISVDTLKNQISLRLTSVTAADTAVYYCARVGGAGGWPMDVWGQGTTVTVSS
VL: QAVLTQPASLSASPGESARLTCTLPSDINVRYYNIYWYQQKPGSPPRYLLYYYSDSHKGQGSGVPSRFSGSKDVSTNSGILLISGLQSEDEADYYCMTWSSNGAGVFGGGTQLTVLG
notes: IgG4 S228P with the X02.1 VH; VL S96A relative to A02.1
B14 displayed a Kd in the assay with Human CD38 [3] of 1.99 nM. This counts as single-digit nanomolar.

B15: X02.91 (antibody, V domains shown)
VH: QLQLQESGPGLVKPSETLSLTCTVSGGSISSSSYYWSWIRQHPGKGLEWIGYIYYSGSTNYNPSLKSRVTISVDTLKNQISLRLTSVTAADTAVYYCARVGGAGGWPMDVWGQGTTVTVSS
VL: QAVLTQPASLSASPGESARLTCTLRSDINVRYYNIYWYQQKPGSPPRYLLYYYSDSHKGQGSGVPSRFSGSKDVSTNSGILLISGLQSEDEADYYCMTWSSNGSGVFGGGTQLTVLG
notes: IgG4 S228P with the X02.1 VH; VL P26R relative to A02.1
In the assay with Human CD38 [5], B15 showed a Kd of 0.707 nM.

B16: X02.104 (antibody, V domains shown)
VH: QLQLQESGPGLVKPSETLSLTCTVSGGSISSSSYYWSWIRQHPGKGLEWIGYIYYSGSTNYNPSLKSRVTISVDTLKNQISLRLTSVTAADTAVYYCARVGGAGGWPMDVWGQGTTVTVSS
VL: QAVLTQPASLSASPGESARLTCTLPSDINVRYYNIYWYQQKPGSPPRYLLYYYSDSHKGQGSGVPSRFSGSKDVSTNSGILLISGLQSEDEADYYCMIWSSNGSGVFGGGTQLTVLG
notes: IgG4 S228P with the X02.1 VH; VL T90I relative to A02.1
In the assay with Human CD38 [2], B16 showed a Kd of 10 nM.

B17: X02.86 (antibody, V domains shown)
VH: QLQLQESGPGLVKPSETLSLTCTVSGGSISSSSYYWSWIRQHPGKGLEWIGYIYYSGSTNYNPSLKSRVTISVDTLKNQISLRLTSVTAADTAVYYCARVGGAGGWPMDVWGQGTTVTVSS
VL: QAVLTQPASLSASPGESARLTCTLPSGINVRYYNIYWYQQKPGSPPRYLLYYYSDSHKGQGSGVPSRFSGSKDVSTNSGILLISGLQSEDEADYYCMTWSSNGSGVFGGGTQLTVLG
notes: IgG4 S228P with the X02.1 VH; VL D(27A)G relative to A02.1
B17 yielded an equilibrium dissociation constant (Kd) in the assay with Human CD38 [5] of 4.28 nM. In other words, the single-digit nanomolar range.

B18: X02.98 (antibody, V domains shown)
VH: QLQLQESGPGLVKPSETLSLTCTVSGGSISSSSYYWSWIRQHPGKGLEWIGYIYYSGSTNYNPSLKSRVTISVDTLKNQISLRLTSVTAADTAVYYCARVGGAGGWPMDVWGQGTTVTVSS
VL: QAVLTQPASLSASPGESARLTCTLPSDINVGYYNIYWYQQKPGSPPRYLLYYYSDSHKGQGSGVPSRFSGSKDVSTNSGILLISGLQSEDEADYYCMTWSSNGSGVFGGGTQLTVLG
notes: IgG4 S228P with the X02.1 VH; VL R29S relative to A02.1
B18 had a Kd with Human CD38 [2] of 0.00584 nM.

B19: X02.95 (antibody)
heavy: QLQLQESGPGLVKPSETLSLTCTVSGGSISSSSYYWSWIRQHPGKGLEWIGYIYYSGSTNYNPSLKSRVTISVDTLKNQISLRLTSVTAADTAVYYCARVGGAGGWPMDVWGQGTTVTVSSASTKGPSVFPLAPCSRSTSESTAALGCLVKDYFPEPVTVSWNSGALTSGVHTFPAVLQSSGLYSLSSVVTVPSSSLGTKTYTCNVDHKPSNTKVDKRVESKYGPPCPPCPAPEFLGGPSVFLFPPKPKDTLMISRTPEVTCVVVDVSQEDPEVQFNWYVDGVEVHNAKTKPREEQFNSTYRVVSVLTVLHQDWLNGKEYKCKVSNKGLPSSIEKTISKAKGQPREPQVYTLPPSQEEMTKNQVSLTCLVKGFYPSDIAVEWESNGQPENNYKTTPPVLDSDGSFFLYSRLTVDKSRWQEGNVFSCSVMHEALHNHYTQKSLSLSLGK
VL: QPVLTQPASLSASPGESARLTCTLPSDINVRYYNIYWYQQKPGSPPRYLLYYYSDSHKGQGSGVPSRFSGSKDVSTNSGILLISGLQSEDEADYYCMTWSSNGSGVFGGGTQLTVLG
notes: IgG4 S228P with the X02.1 VH; VL A2P relative to A02.1
In turn, B19 had a Kd with Human CD38 [2] of 0.0044 nM. This Kd and that of the molecule before are within 1.5-fold of each other.

B20: X02.110 (antibody, human IgG4 S228P, V domains shown)
VH: QLQLQESGPGLVKPSETLSLTCTVSGGSISSSSYYWSWIRQHPGKGLEWIGYIYYSGSTNYNPSLKSRVTISVDTLKNQISLKLTSVTAADTAVYYCARVGGAGGWPMDVWGQGTTVTVSS
VL: QAVLTQPASLSASPGESARLTCTLPSDINVRYYNIYWYQQKPGSPPRYLLYYYSDSHKGQGSGVPSRFSGSKDVSTNSGILLISGLQSEDEADYYCMTWSSNGSGVFGGGTQLTVLG
notes: IgG4 S228P; VH R81K relative to X02.1
Regarding B20, the affinity with Human CD38 [1], expressed as Kd, was 20.7 nM. This lies in the double-digit nanomolar range.

B21: X02.90 (antibody, V domains shown)
VH: QLQLQESGPGLVKPSETLSLTCTVSGGSISSSSYYWSWIRQHPGKGLEWIGYIYYSGSTNYNPSLKSRVTISVDTLKNQISLRLTSVTAADTAVYYCARVGGAGGWPMDVWGQGTTVTVSS
VL: QAVLTQPASLSASPGESARLTCTLPSDINVRYYNIYWYQQKPGSPPRYLLYYYSDSHKGQGSGVPSRFSGSKDVSTNSGILLISGLQSEDEADYYCMTWSSTGSGVFGGGTQLTVLG
notes: IgG4 S228P with the X02.1 VH; VL N94T relative to A02.1
Take B21: in the assay with Human CD38 [3], the equilibrium dissociation constant (Kd) turned out to be 0.552 nM.

Values taken from patent publication US20180305460A1 (Teva, published 2018).
